# From IntAct's records for PubMed 9571151
# B1: Tyrosine-protein kinase BTK (Homo sapiens), Q06187 (parent)
# chain: MAAVILESIFLKRSQQKKKTSPLNFKKRLFLLTVHKLSYYEYDFERGRRGSKKGSIDVEKITCVETVVPEKNPPPERQIPRRGEESSEMEQISIIERFPYPFQVVYDEGPLYVFSPTEELRKRWIHQLKNVIRYNSDLVQKYHPCFWIDGQYLCCSQTAKNAMGCQILENRNGSLKPGSSHRKTKKPLPPTPEEDQILKKPLPPEPAAAPVSTSELKKVVALYDYMPMNANDLQLRKGDEYFILEESNLPWWRARDKNGQEGYIPSNYVTEAEDSIEMYEWYSKHMTRSQAEQLLKQEGKEGGFIVRDSSKAGKYTVSVFAKSTGDPQGVIRHYVVCSTPQSQYYLAEKHLFSTIPELINYHQHNSAGLISRLKYPVSQQNKNAPSTAGLGYGSWEIDPKDLTFLKELGTGQFGVVKYGKWRGQYDVAIKMIKEGSMSEDEFIEEAKVMMNLSHEKLVQLYGVCTKQRPIFIITEYMANGCLLNYLREMRHRFQTQQLLEMCKDVCEAMEYLESKQFLHRDLAARNCLVNDQGVVKVSDFGLSRYVLDDEYTSSVGSKFPVRWSPPEVLMYSKFSSKSDIWAFGVLMWEIYSLGKMPYERFTNSETAEHIAQGLRLYRPHLASEKVYTIMYSCWHEKADERPTFKILLSNILDVMDEES
# partner: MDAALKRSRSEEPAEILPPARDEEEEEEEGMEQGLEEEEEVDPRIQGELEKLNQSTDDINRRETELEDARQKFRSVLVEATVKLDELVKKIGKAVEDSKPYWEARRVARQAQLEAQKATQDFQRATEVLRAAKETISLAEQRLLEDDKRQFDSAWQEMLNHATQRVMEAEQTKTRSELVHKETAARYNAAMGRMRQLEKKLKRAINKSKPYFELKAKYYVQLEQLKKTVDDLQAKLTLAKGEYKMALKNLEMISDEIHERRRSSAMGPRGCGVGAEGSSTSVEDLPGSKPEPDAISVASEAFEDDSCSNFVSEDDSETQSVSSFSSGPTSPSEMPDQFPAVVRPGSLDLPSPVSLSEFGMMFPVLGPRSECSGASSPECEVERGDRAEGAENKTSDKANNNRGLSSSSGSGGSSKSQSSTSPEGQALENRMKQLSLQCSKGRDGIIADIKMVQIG
# Variants of: B1
# Details: with 3bp5_human SH3BP5, O60239
row,effect of a mutation on the interaction,Variant
1,decreasing interaction,W251L;W252L
